Experiments:
[1] = target: Sigma mSPE-7 IgE (commercial mouse monoclonal anti-dinitrophenyl IgE, SPE-7, from Sigma) (mouse); settings: scale: % of the activity of the unpurified Sigma SPE-7 IgE
[2] = target: mSPE-7 IgE from the NS1 hybridoma (mouse anti-dinitrophenyl IgE) (mouse); settings: scale: % of the unpurified Sigma SPE-7 IgE's activity
[3] = target: mSPE-7 IgE from the NS1 hybridoma (mouse anti-dinitrophenyl IgE) (mouse); assay: SEC-MALLS; peak B of the Superdex 200 Increase fractionation of NS1 mSPE-7 IgE, run again on Superdex 200 Increase with inline light scattering and refractometer

| Substance | degranulation of RBL-SX38 cells (β-hexosaminidase release) without antigen by component B of Sigma SPE-7 IgE, against unpurified Sigma SPE-7 IgE [1] | degranulation of RBL-SX38 cells (β-hexosaminidase release) without antigen by peak B (IgE trimer) of NS1 mSPE-7 IgE, against unpurified Sigma SPE-7 IgE [2] | stoichiometry N [3] |
| --- | --- | --- | --- |
| Sigma mSPE-7 IgE (commercial mouse monoclonal anti-dinitrophenyl IgE, SPE-7, from Sigma) (antibody) | 65 |  |  |
| mSPE-7 IgE from the NS1 hybridoma (mouse anti-dinitrophenyl IgE) (antibody) |  | 55 | 3 |

— publication PMC5557881
